Assay results taken from patent EP4477673A1, “IMMUNOCONJUGATE AND USE THEREOF” (priority 2022, dated 2023).
Like-named read-outs stand apart in the source and are kept apart here.

What was measured:
[1] = biological target: T1, human PD-1 (human, UniProt Q15116 25-288); test: cell-based or functional assay
[2] = biological target: T1, human PD-1; test: flow cytometry on Jurkat cells overexpressing human PD-1
[3] = biological target: T2, Human PD-1 protein (His Tag) (human, UniProt Q15116 25-167); test: ELISA, plate coated with human PD-1 (his tag), anti-human IgG4 Fc-HRP
T2 construct: also called PD1-H5221; PD-1 antigen; not shown: His tag

[4] = biological target: T1, human PD-1; test: cell-based or functional assay; remark: listed apart in the source
[5] = biological target: T3, IL-2Rβ/γ on M07e cells (human, UniProt P14784 27-551; P31785 23-369); test: cell-based or functional assay
T3 sequence (looked up) 1: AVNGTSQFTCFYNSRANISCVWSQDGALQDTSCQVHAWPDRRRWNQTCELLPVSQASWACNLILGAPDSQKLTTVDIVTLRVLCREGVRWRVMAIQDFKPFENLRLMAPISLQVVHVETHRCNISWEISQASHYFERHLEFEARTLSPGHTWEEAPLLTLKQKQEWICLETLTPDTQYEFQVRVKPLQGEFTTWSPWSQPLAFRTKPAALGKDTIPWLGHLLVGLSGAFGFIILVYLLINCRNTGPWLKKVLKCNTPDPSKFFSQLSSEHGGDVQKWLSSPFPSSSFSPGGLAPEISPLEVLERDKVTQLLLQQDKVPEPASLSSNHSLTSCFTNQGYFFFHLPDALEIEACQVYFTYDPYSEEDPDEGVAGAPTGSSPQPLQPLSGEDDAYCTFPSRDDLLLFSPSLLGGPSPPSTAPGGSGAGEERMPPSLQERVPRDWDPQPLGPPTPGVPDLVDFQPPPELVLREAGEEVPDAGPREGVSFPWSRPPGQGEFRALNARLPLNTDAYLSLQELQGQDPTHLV
T3 sequence (looked up) 2: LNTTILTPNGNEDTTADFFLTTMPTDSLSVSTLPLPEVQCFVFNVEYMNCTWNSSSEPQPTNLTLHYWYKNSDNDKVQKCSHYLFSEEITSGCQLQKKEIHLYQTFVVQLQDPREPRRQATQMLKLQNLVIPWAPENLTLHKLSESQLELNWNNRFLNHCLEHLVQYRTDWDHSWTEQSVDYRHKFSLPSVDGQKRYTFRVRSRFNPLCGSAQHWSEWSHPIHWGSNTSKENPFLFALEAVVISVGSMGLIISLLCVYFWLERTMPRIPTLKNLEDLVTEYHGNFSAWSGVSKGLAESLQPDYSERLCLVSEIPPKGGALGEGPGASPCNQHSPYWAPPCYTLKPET

[6] = biological target: T1, human PD-1; test: cell-based or functional assay; remark: listed apart in the source
[7] = biological target: T1, human PD-1; test: cell-based or functional assay; remark: listed apart in the source
[8] = biological target: T4, human IL-2Rα receptor protein (Sino Biological, 10165-H08H) (human, UniProt P01589 22-213); test: SPR Biacore 8K, fusion protein captured by anti-human IgG (Fc), IL-2Rα as analyte
T4 construct: also called CD25
T4 sequence (looked up): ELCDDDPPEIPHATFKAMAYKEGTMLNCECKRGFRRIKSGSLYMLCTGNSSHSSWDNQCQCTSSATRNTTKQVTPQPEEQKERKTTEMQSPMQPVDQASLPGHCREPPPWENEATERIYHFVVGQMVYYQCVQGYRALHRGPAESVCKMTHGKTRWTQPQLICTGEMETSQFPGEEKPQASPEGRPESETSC

[9] = biological target: Human PD-1 antigen protein (Sino Biological, 10377-H08H) (human, UniProt Q15116 25-167); test: SPR Biacore 8K, fusion protein captured by anti-human IgG (Fc), human PD-1 as analyte
[10] = biological target: T5, human IL-2Rβ/γ receptor heterodimer protein (Acrosystem, ILG-H5283) (human, UniProt P14784 27-239; P31785 23-262, limits assumed); test: SPR Biacore 8K, fusion protein captured by anti-human IgG (Fc), human IL-2Rβ/γ heterodimer as analyte
T5 sequence (looked up) 1: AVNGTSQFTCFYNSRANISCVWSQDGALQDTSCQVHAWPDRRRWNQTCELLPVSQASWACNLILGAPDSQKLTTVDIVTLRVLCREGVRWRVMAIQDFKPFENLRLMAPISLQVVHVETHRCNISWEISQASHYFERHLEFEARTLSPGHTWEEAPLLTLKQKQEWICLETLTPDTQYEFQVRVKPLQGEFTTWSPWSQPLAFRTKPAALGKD
T5 sequence (looked up) 2: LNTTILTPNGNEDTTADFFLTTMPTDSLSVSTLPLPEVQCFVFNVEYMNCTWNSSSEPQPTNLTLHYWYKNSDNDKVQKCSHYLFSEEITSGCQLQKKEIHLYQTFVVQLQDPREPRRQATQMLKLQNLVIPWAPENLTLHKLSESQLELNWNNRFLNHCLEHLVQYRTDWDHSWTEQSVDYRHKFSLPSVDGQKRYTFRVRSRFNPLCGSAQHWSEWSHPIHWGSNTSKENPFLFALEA

Chain of Human PD-1 antigen protein (Sino Biological, 10377-H08H) (Q15116 25-167 limits assumed): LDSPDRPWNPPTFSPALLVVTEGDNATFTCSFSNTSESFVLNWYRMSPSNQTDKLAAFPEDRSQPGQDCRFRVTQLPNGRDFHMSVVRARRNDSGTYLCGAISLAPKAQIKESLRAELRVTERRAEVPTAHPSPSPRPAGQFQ
T1 sequence (Q15116 25-288 limits assumed): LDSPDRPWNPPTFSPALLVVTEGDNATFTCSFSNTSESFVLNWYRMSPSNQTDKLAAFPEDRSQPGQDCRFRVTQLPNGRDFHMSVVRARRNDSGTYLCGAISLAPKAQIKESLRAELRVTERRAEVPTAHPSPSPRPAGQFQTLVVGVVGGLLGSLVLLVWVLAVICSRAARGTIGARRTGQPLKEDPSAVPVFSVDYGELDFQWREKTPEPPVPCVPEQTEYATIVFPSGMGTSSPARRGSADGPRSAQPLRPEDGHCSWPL
T2 sequence (Q15116 25-167): as the sequence (Q15116 25-167 limits assumed) above

B1: A17_hIgG4 (antibody, V domains shown)
VH: EVQVVESGGGLVQPGGSLRLSCVASGLTFSDYSMSWYRQAPGKERELVAIISGSGVIAHYVDSVKGRFTISRDNAKSTVYLQMVSLKPEDRGVYYCRAVSDWDDYWGQGTQVTVSS
[1]
  IC50, PD-1/PD-L1 NFAT reporter gene system: 1.2 nM
[2]
  EC50: 0.357 nM
[3]
  EC50: 0.061 nM

B2: A-PC (Fc fusion)
chain (part 1 of 2): EVQLVESGGGLVQPGGSLRLSCAASGLTFSDYSMSWYRQAPGKGRELVAIISGSGVITHYVDSVKGRFTISRDNAKNTLYLQMRSLRAEDTAVYYCRAVSDWEDYWGQGTQVTVSS
chain (part 2 of 2): GGGGSGGGGSGGGGSAPASSSTKKTQLQLEHLLLDLQMILQGISNYKNPKLTRMLTAKFYMPKKATELKHLQCLEEELKPLEEVLQGAQSKNFHLRPRDLISNINVIVLELKGSETTFMCEYADETATIVEFLNRWITFAQSIISTLT
chain: EVQLVESGGGLVQPGGSLRLSCAASGLTFSDYSMSWYRQAPGKGRELVAIISGSGVITHYVDSVKGRFTISRDNAKNTLYLQMRSLRAEDTAVYYCRAVSDWEDYWGQGTQVTVSS
notes: also called positive control molecule A-PC; PD-1-IL-2v; not shown: IgG1 hinge (C220S) + Fc Knob chain (L234A, L235A, S354C, T366W, EU); D356/L358 or E356/M358 ver; IgG1 hinge (C220S) + Fc Hole chain (L234A, L235A, Y349C, T366S, L368A, Y407V; may have H435R, Y436F; EU)
[4]
  M07e-hPD-1 cell proliferation activity (%) at 0.0001 nM: 1%
  M07e-hPD-1 cell proliferation activity (%) at 0.001 nM: 3%
  M07e-hPD-1 cell proliferation activity (%) at 0.01 nM: 28%
  M07e-hPD-1 cell proliferation activity (%) at 0.1 nM: 87%
  M07e-hPD-1 cell proliferation activity (%) at 1 nM: 99%
  M07e-hPD-1 cell proliferation activity (%) at 10 nM: 98%
  M07e-hPD-1 cell proliferation activity (%) at 100 nM: 102%
  M07e-hPD-1 cell proliferation activity (%) at 1000 nM: 100%
[5]
  M07e cell proliferation activity (%) at 0.46 nM: 0.1%
  M07e cell proliferation activity (%) at 1.4 nM: 3.6%
  M07e cell proliferation activity (%) at 4.1 nM: 28.1%
  M07e cell proliferation activity (%) at 12 nM: 41.6%
  M07e cell proliferation activity (%) at 37 nM: 71.7%
  M07e cell proliferation activity (%) at 111 nM: 87.2%
  M07e cell proliferation activity (%) at 333 nM: 89.8%
  M07e cell proliferation activity (%) at 1000 nM: 100%
[6]
  M07e-hPD-1 cell proliferation ratio (%) at 0.0001 nM: 2.4%
  M07e-hPD-1 cell proliferation ratio (%) at 0.001 nM: 4.9%
  M07e-hPD-1 cell proliferation ratio (%) at 0.01 nM: 33.7%
  M07e-hPD-1 cell proliferation ratio (%) at 0.1 nM: 79%
  M07e-hPD-1 cell proliferation ratio (%) at 1 nM: 95.9%
  M07e-hPD-1 cell proliferation ratio (%) at 10 nM: 113%
  M07e-hPD-1 cell proliferation ratio (%) at 100 nM: 112%
  M07e-hPD-1 cell proliferation ratio (%) at 1000 nM: 100%
[7]
  M07e-hPD-1 cell proliferation ratio (%) at 0.0001 nM: 4%
  M07e-hPD-1 cell proliferation ratio (%) at 0.001 nM: 8.1%
  M07e-hPD-1 cell proliferation ratio (%) at 0.01 nM: 29.3%
  M07e-hPD-1 cell proliferation ratio (%) at 0.1 nM: 99.5%
  M07e-hPD-1 cell proliferation ratio (%) at 1 nM: 112%
  M07e-hPD-1 cell proliferation ratio (%) at 10 nM: 107%
  M07e-hPD-1 cell proliferation ratio (%) at 100 nM: 105%
  M07e-hPD-1 cell proliferation ratio (%) at 1000 nM: 100%
[8]
  binding result: no binding
[9]
  Kd: 19.4 nM
  koff: 0.00182 s⁻¹
  kon: 93700 M⁻¹ s⁻¹
[10]
  Kd: 0.253 nM
  koff: 2.23e-05 s⁻¹
  kon: 88100 M⁻¹ s⁻¹
